The record followed here is patent US20060257928.

The data set addresses biotinylated H3 peptide (first 21 amino acids of Histone H3 with a Biotin label on the CO2H terminus, Upstate Biotechnology), P68431.

B1: SUV39H1(82-412)-GST protein (protein)
chain: CVRILKQFHKDLERELLRRHHRSKTPRHLDPSLANYLVQKAKQRRALRRWEQELNAKRSHLGRITVENEVDLDGPPRAFVYINEYRVGEGITLNQVAVGCECQDCLWAPTGGCCPGASLHKFAYNDQGQVRLRAGLPIYECNSRCRCGYDCPNRVVQKGIRYDLCIFRTDDGRGWGVRTLEKIRKNSFVMEYVGEIITSEEAERRGQIYDRQGATYLFDLDYVEDVYTVDAAYYGNISHFVNHSCDPNLQVYNVFIDNLDERLPRIAFFATRTIRAGEELTFDYNMQVDPVDMESTRMDSNFGLAGLPGSPKKRVRIECKCGTESCRKYLF
For the protein B1, the “Histone methyl transferase activity (radioactive assay, 14C labelled methylated H3 peptide)” value is reported as “Histone methyl transferase activity of truncated protein was confirmed by radioactive assay”.
